Patent US20230029307A1

Target: rhVEGF165 (R&D Systems, Cat #293-VE-010) (human) (UniProt P15692)
Test: cell-based or functional assay

Chain of rhVEGF165 (R&D Systems, Cat #293-VE-010) (human) (P15692 other isoform, or with tags, fused parts or gaps limits assumed): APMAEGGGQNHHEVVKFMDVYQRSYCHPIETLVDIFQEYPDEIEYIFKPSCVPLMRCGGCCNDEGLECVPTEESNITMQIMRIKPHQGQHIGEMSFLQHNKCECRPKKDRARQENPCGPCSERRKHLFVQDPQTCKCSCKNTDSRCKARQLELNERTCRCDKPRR

maximal % inhibition of VEGF-stimulated BCEC proliferation: < 80%
Substance: Aflibercept (EYLEA) (from UniProt P17948 129-230; P35968 225-327) (Fc fusion)
